Test results from patent US20170240637A1 (Memorial Sloan Kettering, published 2017).
Positions count from the first letter of the chain named. One block for each binder: values may come before it.

Columns and labels:
[1] = biological target: T1, 4Ig-B7H3 fused to mouse Fc (B7H3-mFc) (human, UniProt Q5ZPR3 29-466, limits assumed, biotinylated on primary amines (NHS-biotin) in the experiment of paragraph 316); experiment: SPR, IgG on 4Ig-B7H3-Fc
T1 construct: Expressed in DG44 CHO cells; also called 4Ig-B7H3-Fc; 4Ig-B7H3-mFc; not shown: mouse Fc
T1 sequence (looked up): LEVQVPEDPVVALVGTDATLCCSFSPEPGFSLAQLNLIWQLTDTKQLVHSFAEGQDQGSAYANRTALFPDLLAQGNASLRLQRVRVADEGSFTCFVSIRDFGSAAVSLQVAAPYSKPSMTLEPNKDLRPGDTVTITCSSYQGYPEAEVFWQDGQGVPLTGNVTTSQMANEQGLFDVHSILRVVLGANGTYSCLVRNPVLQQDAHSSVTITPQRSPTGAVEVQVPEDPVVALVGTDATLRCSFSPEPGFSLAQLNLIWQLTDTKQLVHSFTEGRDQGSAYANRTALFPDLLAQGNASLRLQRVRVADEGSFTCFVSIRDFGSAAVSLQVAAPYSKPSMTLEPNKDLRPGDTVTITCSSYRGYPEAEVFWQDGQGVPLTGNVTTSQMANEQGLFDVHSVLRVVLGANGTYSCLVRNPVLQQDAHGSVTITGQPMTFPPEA
Description: (§1) In brief, B7H3 antigen (either 2Ig-B7H3, 4Ig-B7H3, 2Ig-B7H3-mFc, 4Ig-B7H3-mFc), was directly immobilized onto the CM5 sensor chip via […]. Reference surface was set up for nonspecific binding and refractive index changes. […] The association and dissociation phase data were fitted simultaneously to a 1:1 model by using BIAevaluation 3.2. All the experiments were done at 25° C.

[2] = biological target: T2, wild type 2Ig-B7H3-mFc (human, UniProt Q5ZPR3-2 29-248, limits assumed); experiment: SPR, IgG on 2Ig-B7H3-mFc
T2 construct: Q5ZPR3 canonical entry is the 4Ig isoform; the 2Ig form is its shorter isoform; also called 2Ig-B7H3-Fc; WT 2Ig-B7H3-Fc; not shown: mouse Fc
T2 sequence (looked up): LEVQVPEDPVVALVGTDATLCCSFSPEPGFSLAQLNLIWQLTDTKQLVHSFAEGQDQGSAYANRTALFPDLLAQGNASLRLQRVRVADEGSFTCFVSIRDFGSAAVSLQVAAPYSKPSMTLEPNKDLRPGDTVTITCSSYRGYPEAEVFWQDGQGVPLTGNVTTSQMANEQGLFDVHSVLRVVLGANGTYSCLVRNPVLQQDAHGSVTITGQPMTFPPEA
Description: as §1

[3] = biological target: T3, 2Ig-B7H3 without Fc fusion (human, UniProt Q5ZPR3-2 29-245, limits assumed); experiment: SPR, IgG on 2Ig-B7-H3 without Fc fusion
T3 construct: also called 2IgB7H3 (R&D)
T3 sequence (looked up): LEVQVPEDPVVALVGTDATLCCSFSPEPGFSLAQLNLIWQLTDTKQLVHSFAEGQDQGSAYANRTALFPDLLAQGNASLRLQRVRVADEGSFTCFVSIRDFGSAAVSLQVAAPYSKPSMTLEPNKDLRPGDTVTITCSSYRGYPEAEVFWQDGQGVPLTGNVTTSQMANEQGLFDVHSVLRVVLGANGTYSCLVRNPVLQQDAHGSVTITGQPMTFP
Description: as §1

[4] = biological target: T4, 4Ig-B7H3 (human, UniProt Q5ZPR3 27-461, limits assumed); experiment: SPR, IgG on 4Ig-B7-H3 without Fc fusion
T4 construct: also called 4Ig-B73H3
T4 sequence (looked up): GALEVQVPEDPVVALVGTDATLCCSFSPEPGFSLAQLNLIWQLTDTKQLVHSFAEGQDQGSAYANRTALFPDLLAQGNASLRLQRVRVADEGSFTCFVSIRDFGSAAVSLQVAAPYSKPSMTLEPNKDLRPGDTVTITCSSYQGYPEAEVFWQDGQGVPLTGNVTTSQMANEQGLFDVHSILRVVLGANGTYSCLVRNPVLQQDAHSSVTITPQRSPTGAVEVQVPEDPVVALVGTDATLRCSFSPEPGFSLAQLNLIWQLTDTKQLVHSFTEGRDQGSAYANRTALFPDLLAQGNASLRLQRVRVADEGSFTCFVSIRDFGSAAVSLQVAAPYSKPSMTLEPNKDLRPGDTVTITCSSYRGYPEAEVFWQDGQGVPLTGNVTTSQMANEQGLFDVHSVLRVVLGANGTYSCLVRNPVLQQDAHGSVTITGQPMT
Description: as §1

[5] = biological target: T2, wild type 2Ig-B7H3-mFc; experiment: SPR, antigen on CM5 chip
Description: (§2) In brief, B7H3 antigen (either 2Ig-B7H3, 4Ig-B7H3, 2Ig-B7H3-mFc, 4Ig-B7H3-mFc), was directly immobilized onto the CM5 sensor chip via […]. Reference surface was set up for nonspecific binding and refractive index changes. For analysis of the kinetics of interactions, varying concentrations of scFvs were injected at flow rate of 30 μl/min using running buffer containing 10 mM HEPES, 150 mM NaCl, 3 mM EDTA, and 0.05% Surfactant P-20 (pH 7.4). The association and dissociation phase data were fitted simultaneously to a 1:1 model by using BIAevaluation 3.2. All the experiments were done at 25° C.

[6] = biological target: B7H3 on B7H3-positive human tumor cells (M14, LAN-1, IMR-32, HeLa) (human) (UniProt Q5ZPR3); experiment: cell-binding assay of 131I-labelled antibody on LAN-1 cells
[7] = biological target: T4, 4Ig-B7H3; experiment: SPR, antigen on CM5 chip
Description: as §2

[8] = biological target: T4, 4Ig-B7H3; experiment: SPR (Biacore), scFv; antigen not given
Description: as §2

[9] = biological target: T4, 4Ig-B7H3; experiment: SPR (Biacore T-100), 4Ig-B7H3 on CM5 chip, scFv injected
Description: as §2

[10] = biological target: T4, 4Ig-B7H3; experiment: SPR

Kd [1]: 6.6 nM
koff [1]: 0.0452 s⁻¹
kon [1]: 6.83e+06 M⁻¹ s⁻¹
Kd [2]: 7.5 nM
koff [2]: 0.035 s⁻¹
kon [2]: 4.67e+06 M⁻¹ s⁻¹
Kd [3]: 45 nM
koff [3]: 0.000607 s⁻¹
kon [3]: 13500 M⁻¹ s⁻¹
Kd [4]: 33 nM
koff [4]: 0.000677 s⁻¹
kon [4]: 20500 M⁻¹ s⁻¹
B1: hu8H9 H3L3 IgG1 (antibody, V domains shown)
VH: QVQLVQSGAEVVKPGASVKLSCKASGYTFTNYDINWVRQRPEQGLEWIGWIFPGDGSTQYNEKFKGKATLTTDTSTSTAYMELSSLRSEDTAVYFCARQTTATWFAYWGQGTLVTVSS
VL: EIVMTQSPATLSVSPGERVSLSCRASQSISDYLHWYQQKSHESPRLLIKYASQSISGIPARFSGSGSGSEFTLTINSVEPEDVGVYYCQNGHSFPLTFGQGTKLELKR

Kd [5]: 0.28 nM
koff [5]: 1.03e-05 s⁻¹
kon [5]: 36700 M⁻¹ s⁻¹
Kd [3]: 0.81 nM
koff [3]: 2.24e-05 s⁻¹
kon [3]: 27800 M⁻¹ s⁻¹
Kd [4]: 8.9 nM
koff [4]: 0.000165 s⁻¹
kon [4]: 18500 M⁻¹ s⁻¹
in vitro immunoreactivity [6]: 69%
B2: murine 8H9 (m8H9) IgG1 monoclonal antibody (antibody, V domains shown)
VH: B1 VH with V5Q, V11L, T76S, E82Q, S85R, R87T, T91S, S118A
VL: DIVMTQSPATLSVTPGDRVSLSCRASQSISDYLHWYQQKSHESPRLLIKYASQSISGIPSRFSGSGSGSDFTLSINSVEPEDVGVYYCQNGHSFPLTFGAGTKLELK
modifications: 131I-labelled in the LAN-1 immunoreactivity assay; the label is not carried by the letters.
notes: also called MAb 8H9

Kd [1]: 42.7 nM
koff [1]: 0.0239 s⁻¹
kon [1]: 560000 M⁻¹ s⁻¹
Kd [7]: 34.8 nM
Kd [2]: 68.4 nM
koff [2]: 0.00116 s⁻¹
kon [2]: 17000 M⁻¹ s⁻¹
B3: hu8H9-H1L2 IgG1 (antibody, V domains shown)
VH: B1 VH with V12K, R40A, E42G
VL: B1 VL with S20T, S69T, L106I

Kd [7]: 34.8 nM
B4: hu8H9-H2L1 IgG1 (antibody, V domains shown)
VH: B1 VH with R40A, E42G, S85R, R87T
VL: B1 VL with S20T, S40P, H41G, E42Q, S43A, S69T, N76S, E79Q, L106I

Kd [7]: 112 nM
B5: hu8H9-H1L1 IgG1 (antibody, V domains shown)
VH: B1 VH with V12K, R40A, E42G
VL: B1 VL with S20T, S40P, H41G, E42Q, S43A, S69T, N76S, E79Q, L106I

Kd [7]: 38.6 nM
B6: hu8H9-H2L2 IgG1 (antibody, V domains shown)
VH: B1 VH with R40A, E42G, S85R, R87T
VL: B1 VL with S20T, S69T, L106I

Kd [8]: 1.7 nM
koff [8]: 9.84e-05 s⁻¹
kon [8]: 58800 M⁻¹ s⁻¹
B7: hu8H9 5.1 scFv (scFv)
scFv: QVQLVQSGAEVVKPGASVKVSCKTSGYTFTNYDINWVRQRPGQGLEWIGWIFPGDDSTQYNEKFKGRVTMTTDTSTSTVYMELSSLRSEDTAVYFCARQTTGTWFAYWGQGTLVTVSSGGGGSGGGGSGGGGSEIVMTQSPATLSVSPGERVTLSCRASQSISDYLYWYQQKSHQAPRLLIKYASQSISGIPARFSGSGSGSEFTLTISSLQPEDFGVYYCQNGHSFPLTFGQGTKLELKR
notes: not shown: FLAG and His tags

Kd [8]: 144 nM
koff [8]: 0.000919 s⁻¹
kon [8]: 6380 M⁻¹ s⁻¹
Kd [9]: 144 nM
koff [9]: 0.000919 s⁻¹
kon [9]: 6380 M⁻¹ s⁻¹
B8: hu8H9 H3L3 scFv (scFv)
scFv: QVQLVQSGAEVVKPGASVKLSCKASGYTFTNYDINWVRQRPEQGLEWIGWIFPGDGSTQYNEKFKGKATLTTDTSTSTAYMELSSLRSEDTAVYFCARQTTATWFAYWGQGTLVTVSSGGGGSGGGGSGGGGSEIVMTQSPATLSVSPGERVSLSCRASQSISDYLHWYQQKSHESPRLLIKYASQSISGIPARFSGSGSGSEFTLTINSVEPEDVGVYYCQNGHSFPLTFGQGTKLELKR
notes: also called parental hu8H9 H3L3; not shown: FLAG and His tags

fold affinity improvement against parental hu8H9 H3L3 scFv [10]: > 50 fold
fold binding improvement against parental hu8H9 H3L3 scFv [10]: > 100 fold
Kd [9]: 1.2 nM
koff [9]: 9.99e-05 s⁻¹
kon [9]: 86100 M⁻¹ s⁻¹
B9: hu8H9 clone S7.22 scFv (scFv)
scFv: B8 scFv with A24T, E42G, G56D, S88P, A102G, S153T, H167Y, S189P
notes: not shown: FLAG and His tags

Kd [8]: 45.7 nM
koff [8]: 0.000557 s⁻¹
kon [8]: 12200 M⁻¹ s⁻¹
B10: hu8H9 4.1 scFv (scFv)
scFv: B7 scFv with T24A, G42E, D56G, G102A, Y167H
notes: not shown: FLAG and His tags

Kd [8]: 0.92 nM
koff [8]: 9.52e-05 s⁻¹
kon [8]: 104000 M⁻¹ s⁻¹
B11: hu8H9 3.1 scFv (scFv)
scFv: B8 scFv with A24T, E42G, G56D, A102G, S153T, H167Y
notes: not shown: FLAG and His tags

fold affinity improvement against parental hu8H9 H3L3 scFv [10]: > 50 fold
Kd [9]: 2.7 nM
koff [9]: 0.000152 s⁻¹
kon [9]: 55900 M⁻¹ s⁻¹
B12: hu8H9 clone S7.29 scFv (scFv)
scFv: B8 scFv with A24T, E42G, M81L, R87G, A102G, S153T, H167Y
notes: not shown: FLAG and His tags

fold affinity improvement against parental hu8H9 H3L3 scFv [10]: > 50 fold
Kd [9]: 2.2 nM
koff [9]: 0.000113 s⁻¹
kon [9]: 51000 M⁻¹ s⁻¹
B13: hu8H9 clone S7.17 scFv (scFv)
scFv: B8 scFv with A24T, E42G, I48V, A102S, S153T, S161P, H167Y, H225Y
notes: not shown: FLAG and His tags

Kd [9]: 277 nM
koff [9]: 0.00132 s⁻¹
kon [9]: 4750 M⁻¹ s⁻¹
B14: hu8H9 clone S7.28 scFv (scFv)
scFv: B8 scFv with A24T, E42G, R87G, A97T, G129S, S153T, S163G, H167Y
notes: not shown: FLAG and His tags

Kd [9]: 5.6 nM
koff [9]: 0.000143 s⁻¹
kon [9]: 25400 M⁻¹ s⁻¹
B15: hu8H9 clone S7.2 scFv (scFv)
scFv: B8 scFv with V18C, A24T, E42G, G131V, S153T, S163G, H167Y
notes: not shown: FLAG and His tags
